From US12692524B2, “Sialyltransferases and their use in producing sialylated oligosaccharides” (Chr. Hansen A/S, priority 2017, dated 2026)

B1: SiaT3: sialyltransferase of Campylobacter jejuni strain OH4384, acc. AX934425, SEQ ID NO: 12 (protein, listed as Campylobacter jejuni)
chain: MGKKVIIAGNGPSLKEIDYSRLPNDFDVFRCNQFYFEDKYYLGKKCKAVFYNPILFFEQYYTLKHLIQNQEYETELIMCSNYNQAHLENENFVKTFYDYFPDAHLGYDFFKQLKDFNAYFKFHEIYFNQRITSGVYMCAVAIALGYKEIYLSGIDFYQNGSSYAFDTKQKNLLKLAPNFKNDNSHYIGHSKNTDIKALEFLEKTYKIKLYCLCPNSLLANFIELAPNLNSNFIIQEKNNYTKDILIPSSEAYGKFSKNIN
B2: SiaT4: sialyltransferase of Helicobacter acinonychis, acc. NC_008229, SEQ ID NO: 11 (protein, listed as Heliobacter acinonychis)
chain: MNKKPLIIAGNGPSIKDLDYALFPKDFDVFRCNQFYFEDKYYLGREIKGVFFNAHVFDLQMKITKAIVKNGEYHPDHIYCTHVEPYGYVNGNQQLMQEYLEKHFVGVRSTYAYLKDLEPFFILHSKYRNFYDQHFTTGIMMLLVAIQLGYKEIYLCGIDFYENGFGHFYENQGGFFEEDSDPMHDKNIDIQALELAKKYAKIYALVPNSALVKMIPLSSQKGVLEKVKDRIGLGEFKREKFGQKELERQKELERQKELERQKELERQKELERQKELERQKELERQKELERQKELERQKELERQKELERQKELERQKELERQKELERQKELERQKELELERSLKARLKAVLASKGIRGDNLIIVSLKDTYRLFKGGFALLLDLKALKSIIKAFLKR
B3: SiaT1: sialyltransferase of Neisseria meningitidis, acc. U60660, SEQ ID NO: 5 (protein, listed as Neisseria meningitidis)
chain: MGLKKACLTVLCLIVFCFGIFYTFDRVNQGERNAVSLLKEKLFNEEGEPVNLIFCYTILQMKVAERIMAQHPGERFYVVLMSENRNEKYDYYFNQIKDKAERAYFFHLPYGLNKSFNFIPTMAELKVKSMLLPKVKRIYLASLEKVSIAAFLSTYPDAEIKTFDDGTGNLIQSSSYLGDEFSVNGTIKRNFARMMIGDWSIAKTRNASDEHYTIFKGLKNIMDDGRRKMTYLPLFDASELKTGDETGGTVRILLGSPDKEMKEISEKAAKNFKIQYVAPHPRQTYGLSGVTTLNSPYVIEDYILREIKKNPHTRYEIYTFFSGAALTMKDFPNVHVYALKPASLPEDYWLKPVYALFTQSGIPILTFDDKN
B4: SiaT11: sialyltransferase of Photobacterium damselae JT0160, acc. BAA25316, SEQ ID NO: 31 (protein, listed as Photobacterium damsela)
chain: MKKILTVLSIFILSACNSDNTSLKETVSSNSADVVETETYQLTPIDAPSSFLSHSWEQTCGTPILNESDKQAISFDFVAPELKQDEKYCFTFKGITGDHRYITNTTLTVVAPTLEVYIDHASLPSLQQLIHIIQAKDEYPSNQRFVSWKRVTVDADNANKLNIHTYPLKGNNTSPEMVAAIDEYAQSKNRLNIEFYTNTAHVFNNLPPIIQPLYNNEKVKISHISLYDDGSSEYVSLYQWKDTPNKIETLEGEVSLLANYLAGTSPDAPKGMGNRYNWHKLYDTDYYFLREDYLDVEANLHDLRDYLGSSAKQMPWDEFAKLSDSQQTLFLDIVGFDKEQLQQQYSQSPLPNFIFTGTTTWAGGETKEYYAQQQVNVINNAINETSPYYLGKDYDLFFKGHPAGGVINDIILGSFPDMINIPAKISFEVLMMTDMLPDTVAGIASSLYFTIPADKVNFIVFTSSDTITDREEALKSPLVQVMLTLGIVKEKDVLFWADHKVNSMEVAIDEACTRIIAKRQPTASDLRLVIAIIKTITDLERIGDVAESIAKVALESFSNKQYNLLVSLESLGQHTVRMLHEVLDAFARMDVKAAIEVYQEDDRIDQEYESIVRQLMAHMMEDPSSIPNVMKVMWAARSIERVGDRCQNICEYIIYFVKGKDVRHTKPDDFGTMLD
B5: SiaT5: sialyltransferase of Helicobacter acinonychis, acc. NC_008229, SEQ ID NO: 33 (protein, listed as Heliobacter acinonychis)
chain: MGTIKKPLIIAGNGPSIKDLDYALFPKDFDVFRCNQFYFEDKYYLGREIKGVFFNPCVLSSQMQTVQYLMDNGEYSIERFFCSVSTDRHDFDGDYQTILPVDGYLKAHYPFVCDTFSLFKGHEEILKHVKYHLKTYSKELSAGVLMLLSAVVLGYKEIYLVGIDFGASSWGHFYDESQSQHFSNHMADCHNIYYDMLTICLCQKYAKLYALAPNSPLSHLLTLNPQAKYPFELLDKPIGYTSDLIISSPLEEKLLEFKNIEEKLLEFKNIEEKLLEFKNIEEKLLEFKNIEEKLLEFKNIEEKLLEFKNIEEKLLEFKNIEEKLLEFKNIEEKLLEFKNIEEKLLEFKNIEEKLLEFKNIEEKLLEFKNIEEKLLEFKNIEEKLLASRLNNILRKIKRKILPFFWGGGVTPTLKVSFRWGAA
B6: SiaT7: sialyltransferase of Pasteurella dagmatis strain DSM 22969, acc. AFY98851, SEQ ID NO: 7 (protein, listed as Pasteurella dagmatis)
chain: MTIYLDPASLPTLNQLMHFTKESEDKETARIFGFSRFKLPEKITEQYNNIHFVEIKNNRPTEDIFTILDQYPEKLELDLHLNIAHSIQLFHPILQYRFKHPDRISIKSLNLYDDGTMEYVDLEKEENKDIKSAIKKAEKQLSDYLLTGKINFDNPTLARYVWQSQYPVKYHFLSTEYFEKAEFLQPLKTYLAGKYQKMDWSAYEKLSPEQQTFYLKLVGFSDETKQLFHTEQTKFIFTGTTTWEGNTDIREYYAKQQLNLLKHFTHSEGDLFIGDQYKIYFKGHPRGGDINDYILKHAKDITNIPANISFEILMMTGLLPDKVGGVASSLYFSLPKEKISHIIFTSNKKIKNKEDALNDPYVRVMLRLGMIDKSQIIFWDSLKQL

Columns and labels:
[1] = In vitro sialylation of LNT by protein extracts, LST-a/-b quantified by LC-MS/MS; format: biochemical; details: for Relative efficacy of sialyltransferases regarding in-vitro production of sialyllacto-N-tetraoses: LST-a / Relative efficacy of sialyltransferases regarding in-vitro production of sialyllacto-N-tetraoses: LST-b: 5 mM LNT, 10 mM CMP-Neu5Ac, 16 hours, LC-MS/MS, relative quantity, n.d.: not detectable
Method: Escherichia coli BL21(DE3) harbouring plamids encoding for 100 sialyltransferases were grown at 30° C. in 100 ml shake flasks filled with 20 ml of 2YT medium supplemented with ampicillin 100 μg ml^−1. When the cultures reached an OD600 of 0.1 to 0.3, gene expression was induced by addition of 0.3 mM IPTG and the incubation was continued for 12 to 16 hours. Cells were harvested by centrifugation and mechanically disrupted in a defined volume of 50 mM Tris-HCl pH7.5 using glass beads. The protein extract was kept on ice until the assay started. The in vitro assay was carried out in a total volume of 25 μl including 50 mM Tris-HCl pH7.5, 5 mM MgCl2, 10 mM CMP-Neu5Ac and 5 mM LNT. The assay started with the addition of 3 μl protein extract and continued for 16 hours. Product formation was determined by mass spectrometry.
Mass spectrometry analysis was performed by MRM (multiple reaction monitoring) using a LC Triple-Quadrupole MS detection system. Precursor ions are selected and analyzed in quadrupole 1, fragmentation takes place in the collision cell using argon as CID gas, selection of fragment ions is performed in quadrupole 3. Chromatographic separation of lactose, 3′-Sialyllactose and 6′-Sialyllactose after dilution of culture supernatant 1:100 with H2O (LC/MS Grade), was performed on a XBridge Amide HPLC column (3.5 μm, 2.1×50 mm (Waters, USA) with a XBridge Amide guard cartridge (3.5 μm, 2.1×10 mm) (Waters, USA). Column oven temperature of the HPLC system was 50° C. The mobile phase was composed of acetonitrile:H2O with 10 mM ammonium acetate. A 1 μl sample was injected into the instrument; the run was performed for 3.60 min with a flow rate of 400 μl/min. 3′-Sialyllactose and 6′-Sialyllactose were analyzed by MRM in ESI positive ionization mode. The mass spectrometer was operated at unit resolution. Sialyllactose forms an ion of m/z 656.2 [M+Na]. The precursor ion of Sialyllactose was further fragmented in the collision cell into the fragment ions m/z 612.15, m/z 365.15 and m/z 314.15. Collision energy, Q1 and Q3 Pre Bias were optimized for each analyte individually. Chromatographic separation of lactose, LNT-II, LNT and LST-a or -b after dilution of particle-free biocatalysis-reaction or crude extract, respectively, 1:50 with H2O (LC/MS Grade), was performed on a XBridge Amide HPLC column (3.5 μm, 2.1×50 mm (Waters, USA) with a XBridge Amide guard cartridge (3.5 μm, 2.1×10 mm) (Waters, USA). Column oven was run at 35° C. The mobile phase was composed of acetonitrile:H2O with 0.1% ammonium hydroxide. A 1 μl sample was injected into the instrument; the run was performed for 3.50 min with a flow rate of 300 μl/min. Lactose, LNT-II, LNT as well as LST-a and -b were analyzed by MRM in ESI negative ionization mode. The mass spectrometer was operated at unit resolution. Lactose forms an ion of m/z 341.00 [M−H]. The precursor ion of Lactose was further fragmented in the collision cell into the fragment ions m/z 179.15, m/z 161.15 and m/z 101.05. LNT-II forms an ion of m/z 544.20 [M−H]. The precursor ion of LNT-II was further fragmented into the fragment ions m/z 382.10, m/z 161.00 and m/z 112.90. LNT forms an ion of m/z 706.20 [M−H]. The precursor ion of LNT was further fragmented into the fragment ions m/z 382.10, m/z 202.10 and m/z 142.00. LST-a and -b forms an ion of m/z 997.20 [M−H]. The precursor ion of LST-a and-b was further fragmented into the fragment ions m/z 290.15, m/z 202.15 and m/z 142.15. Collision energy, Q1 and Q3 Pre Bias were optimized for each analyte individually. Quantification methods were established using commercially available standards (Carbosynth, Compton, UK).
Twenty eight genes were identified to produce LST-a whereas only 6 enzymes synthesized LST-b. […] Irrespectively of the protein overexpression level, sialyltransferases that produced best were selected for determination of Km and Vmax.

[2] = In vivo screening in E. coli #1363/#1730 with lactose as acceptor, sialyllactose identified by TLC; format: cell-based, Escherichia coli BL21(DE3); details: for Described activity confirmed in the lactose screening: in words
Method: Escherichia coli BL21(DE3) #1363 and #1730 harbouring plasmids encoding for 100 sialyltransferases were grown at 30° C. in 100 ml shake flasks filled with 20 ml of mineral salts medium (Samain et al., J. Biotech. 1999, 72:33-47) supplemented with 2% (wt/vol) glucose, ampicillin 100 μg ml^−1, kanamycin 15 μg ml^−1 and zeocin 40 μg ml^−1. When the cultures reached an OD600 of 0.1 to 0.3, gene expression was induced by addition of 0.3 mM IPTG. After an incubation for one hour, 1.5 mM lactose was added to #1363 cultures whereas 1.5 mM lactose as well as 1.5 mM sialic acid was added to #1730 cultures. The incubation continued for 72 to 96 hours. Then, cells were harvested by centrifugation and mechanically disrupted in a defined volume using glass beads. Subsequently, samples were applied to thin layer chromatography (TLC) on Silica Gel 60 F254 (Merck KGaA, Darmstadt, Germany). A mixture of butanol:acetone:acetic acid:H2O (35/35/7/23 (v/v/v/v)) was used as mobile phase. For detection of the separated substances, the TLC plate was soaked with thymol reagent (0.5 g thymol solved in 95 ml ethanol, 5 ml sulfuric acid added) and heated.
In the entire screening, thirty two genes were identified to encode for α-2,3-sialyltransferases, thus producing 3′-SL. 19 enzymes synthesized 6′-SL and were depicted as α-2,6-sialyltransferases. An α-2,3- as well as an α-2,6-sialyltransferase activity could only be observed for 3 enzymes. […] The screening appeared highly accurate since the described activities of extensively characterized sialyltransferases, e. g. […] Regarding the product formation, the experimental setting allowed a semi-quantitative comparison of the screened enzymes. But to achieve deeper knowledge about their kinetic properties, the 3 potentially best performing α-2,3- and α-2,6-sialyltransferases were applied to in vitro assays.

Molecule | Relative efficacy of sialyltransferases regarding in-vitro production of sialyllacto-N-tetraoses: LST-a [1] | Described activity confirmed in the lactose screening [2] | Relative efficacy of sialyltransferases regarding in-vitro production of sialyllacto-N-tetraoses: LST-b [1] | also measured
B1 | 605 |  |  | 
B2 | 654 |  |  | 
B3 | 2.98 × 10^3 | could be confirmed |  | Described activity to sialylate LNT verified ([1]; in words): could be verified; Production of sialyllactose in-vivo ([2]; 1.5 mM lactose, 72 to 96 hours, qualitative via TLC): 3′-SL
B4 |  | could be confirmed | 13 | 
B5 |  |  | 1 | 
B6 | 2.25 × 10^3 |  |  | 
